Measured values: patent US20060029946A1 (Scripps Research, published 2006)

Experiments:
[1] = target: T1, Cdc42-GTPγS (activated Cdc42) (UniProt P60953 1-191)
[2] = target: T1, Cdc42-GTPγS (activated Cdc42); assay: apparent equilibrium binding constant; fluorescence titration of a fixed concentration of labeled WASP fragment with cdc42-GTPγS
RhoA (activated GTPase) = RhoA (activated GTPase) (UniProt P61586 1-193); assay: fluorescence response of the I-SO WASP biosensor with activated GTPases
Rac (activated GTPase) = Rac (activated GTPase) (UniProt P63000 1-192); assay: as above

T1 sequence (P60953 whole entry, the tested form may be a part): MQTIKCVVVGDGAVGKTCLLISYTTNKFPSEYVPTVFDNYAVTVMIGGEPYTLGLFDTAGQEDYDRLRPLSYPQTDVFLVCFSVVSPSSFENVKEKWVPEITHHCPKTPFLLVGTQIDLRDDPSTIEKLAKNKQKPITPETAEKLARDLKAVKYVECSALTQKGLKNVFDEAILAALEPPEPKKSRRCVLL
RhoA (activated GTPase), sequence (P61586 whole entry): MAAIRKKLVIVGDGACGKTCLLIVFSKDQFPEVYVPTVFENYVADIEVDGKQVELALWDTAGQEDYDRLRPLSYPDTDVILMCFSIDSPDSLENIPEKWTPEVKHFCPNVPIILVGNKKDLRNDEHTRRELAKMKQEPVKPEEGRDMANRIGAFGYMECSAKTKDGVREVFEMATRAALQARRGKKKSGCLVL

B1: Wiskott Aldrich Syndrome Protein (WASP) fragment, residues 201-320, F271C, labeled with S-SO dye 2e (other)
chain: DIQNPDITSSRYRGLPAPGPSPADKKRSGKKKISKADIGAPSGFKHVSHVGWDPQNGFDVNNLDPDLRSLCSRAGISEAQLTDAETSKLIYDFIEDQGGLEAVRQEMRRQEPLPPPPPPS
notes: also called labeled WASP fragment; WASP conjugate; not shown: C-terminal 6His fusion from pET23a
B1 was tested, and the “change in fluorescence intensity” value [1] was 3 fold and the Kd [2] was 150 nM.

B2: WASP fragment F271C labeled with I-SO dye (other)
chain: DIQNPDITSSRYRGLPAPGPSPADKKRSGKKKISKADIGAPSGFKHVSHVGWDPQNGFDVNNLDPDLRSLCSRAGISEAQLTDAETSKLIYDFIEDQGGLEAVRQEMRRQEPLPPPPPPS
notes: also called I-SO-WASP biosensor; I-SO labeled WASP fragment; not shown: C-terminal 6His fusion from pET23a
In the case of B2, the “increase in fluorescence intensity” value [1] is reported as 2.8 fold, the binding result (RhoA (activated GTPase)) is reported as “no binding” and the binding result (Rac (activated GTPase)) is reported as “no binding”.
